Test results from patent publication US20150218285A1 (TORAY INDUSTRIES, published 2015).

What was measured:
[1] = target: T1, polypeptide set forth in SEQ ID NO: 430 (human); assay: ELISA on 93 synthetic CAPRIN-1 peptides, purified antibody 0.1 ug/mL
T1 peptide: ATQVPLVSSTSEGYTA
Procedure: Candidate peptides (93 peptides) each consisting of 12 to 16 amino acids of the amino acid sequence of the human CAPRIN-1 protein were synthesized and were each dissolved at a concentration of 1 mg/mL in DMSO. Each peptide was dissolved at a concentration of 30 μg/mL in a 0.1 M sodium carbonate buffer (pH 9.6). The solution was added to a 96-well plate (manufactured by Nunc, Product No. 436006) at 100 μL per well, followed by being left to stand at 4° C. overnight. The solution was removed, and 200 μL of 10 mM ethanolamine/0.1 M sodium carbonate buffer (pH 9.6) was added to each well, followed by being left to stand at room temperature for 1 hour. The solution was removed, and each well was washed with PBS containing 0.5% Tween 20 (PBST) twice to prepare a peptide-immobilized plate. For confirmation, this plate was also provided with a well to which the CAPRIN-1 protein was immobilized in accordance with the method described above. Rabbit anti-CAPRIN-1 monoclonal antibody #1 purified to a concentration of 0.1 ug/mL by a usual method was added to the plate at an amount of 50 μL per well, followed by shaking at room temperature for 1 hour. The solution was removed, and each well was washed with PBST three times. […] The absorbance was measured at 450 nm and 595 nm with an absorption spectrometer. […]

[2] = target: T1, polypeptide set forth in SEQ ID NO: 430; assay: ELISA as in Example 13(1), purified antibody
[3] = target: T2, polypeptide set forth in SEQ ID NO: 431 (human); assay: ELISA on immobilised synthetic CAPRIN-1 peptides, culture supernatant
T2 peptide: VERVFQSNYFDSTHNH

[4] = target: T3, CAPRIN-1 protein on the cell surface of human cancer cells (human, UniProt Q14444 2-709); assay: flow cytometry on Hep3B, HepG2, SK-Hep-1, SW480; antibody 20 ug/mL; control: secondary antibody only
T3 construct: whole, on cells; endogenous protein of human cancer cell lines
T3 sequence (looked up): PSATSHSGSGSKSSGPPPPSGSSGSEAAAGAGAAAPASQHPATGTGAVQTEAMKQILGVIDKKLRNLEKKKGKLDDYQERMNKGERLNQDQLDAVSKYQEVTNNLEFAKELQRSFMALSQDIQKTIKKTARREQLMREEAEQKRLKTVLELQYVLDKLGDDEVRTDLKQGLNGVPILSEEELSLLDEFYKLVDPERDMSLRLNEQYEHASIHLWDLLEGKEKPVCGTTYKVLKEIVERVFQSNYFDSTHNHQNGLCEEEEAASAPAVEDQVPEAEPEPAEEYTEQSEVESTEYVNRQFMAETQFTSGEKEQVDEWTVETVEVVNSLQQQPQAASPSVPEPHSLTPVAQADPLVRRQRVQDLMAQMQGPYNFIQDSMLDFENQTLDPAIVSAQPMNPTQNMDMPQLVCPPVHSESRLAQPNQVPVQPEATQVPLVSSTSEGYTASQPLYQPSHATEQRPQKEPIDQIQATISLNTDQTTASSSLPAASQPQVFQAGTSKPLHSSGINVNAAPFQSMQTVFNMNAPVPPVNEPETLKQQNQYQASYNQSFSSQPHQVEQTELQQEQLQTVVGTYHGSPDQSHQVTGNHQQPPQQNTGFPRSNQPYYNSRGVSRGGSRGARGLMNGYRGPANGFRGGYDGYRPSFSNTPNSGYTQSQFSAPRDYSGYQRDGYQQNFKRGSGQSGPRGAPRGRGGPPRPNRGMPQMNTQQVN
Procedure: Four human liver cancer cell lines (Hep3 GB, HepG2, SK-Hep-1, and SW480) were investigated whether or not a CAPRIN-1 protein is expressed on the cell surface using mouse anti-CAPRIN-1 monoclonal antibodies #30 to #36. 5×10⁵ cells of each of the liver cancer cell lines were centrifuged with a 1.5-mL micro centrifugation tube. The cells were subjected to reaction with each of mouse anti-CAPRIN-1 antibodies #30 to #36 at a final concentration of 20 μg/mL, followed by being left to stand on ice for 1 hour. After washing with PBS, the cells were reacted with a 100-fold diluted Alexa488-labeled goat anti-mouse IgG antibody (manufactured by Invitrogen Corporation), followed by being left to stand on ice for […]. After washing with PBS, the fluorescence intensity was measured with FACS Calibur available from Becton, Dickinson and Company. Separately, the cells were subjected to reaction with only the secondary antibody as a negative control.

[5] = target: T4, polypeptide comprising the amino acid sequence set forth in SEQ ID NO: 269 (human); assay: ELISA on immobilised synthetic CAPRIN-1 peptides, culture supernatant
T4 peptide: PPVNEPETLKQQNQYQAS

[6] = target: T3, CAPRIN-1 protein on the cell surface of …; assay: cell-based or functional assay
[7] = target: T5, peptide set forth in SEQ ID NO: 268 (human); assay: ELISA on immobilised synthetic CAPRIN-1 peptides, culture supernatant
T5 peptide: FTSGEKEQVDEW

[8] = target: T6, polypeptide set forth in SEQ ID NO: 266 (human); assay: as above
T6 construct: identified by ELISA on synthetic 12-16 aa peptides of human CAPRIN-1
T6 peptide: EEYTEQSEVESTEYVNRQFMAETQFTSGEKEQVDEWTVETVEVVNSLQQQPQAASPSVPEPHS

[9] = target: T3, CAPRIN-1 protein on the cell surface of …; assay: flow cytometry on Hep3B, HepG2, SK-Hep-1, SW480; culture supernatant; vs isotype control
Procedure: Subsequently, four liver cancer cell lines (Hep3 GB, HepG2, SK-Hep-1, and SW480), which were confirmed to express a CAPRIN-1 gene, were investigated for whether or not a CAPRIN-1 protein is expressed on the surfaces of these cells. 1×10⁶ cells of each cell line were centrifuged with a 1.5-mL micro centrifugation tube. To the cells was added the culture supernatant (100 μL) containing any of mouse monoclonal antibodies #1 to #22 against a CAPRIN-1 protein reacting to cancer cell surface produced in Example 4 and mouse-chicken chimeric antibodies #1 to #3 against a CAPRIN-1 protein produced in the above (2), followed by being left to stand on ice for 1 hour. After washing with PBS, the cells were suspended in a FITC-labeled goat anti-mouse IgG antibody (manufactured by Invitrogen Corporation) diluted by 500-fold with PBS containing 0.1% FBS, followed by being left to stand on ice for 1 hour. After washing with PBS, the fluorescence intensity was measured with FACS Calibur available from Becton, Dickinson and Company. Separately, as a control, the same procedure as in above was performed using an iso-type control antibody, instead of the culture supernatants containing the mouse monoclonal antibodies #1 to #22 against a CAPRIN-1 protein and the mouse-chicken chimeric antibodies #1 to #3. As a result, the fluorescence intensity in the cells to which any of the monoclonal antibodies #1 to #22 and the mouse-chicken chimeric antibodies #1 to #3 was added was 20% or more higher than that in the control in every case. Specifically, in the case of using mouse-chicken chimeric antibody #1, the fluorescence intensity was enhanced by 200% or more in both SK-Hep-1 and Hep3B. […] The rate of increase in the fluorescence intensity is represented by the rate of increase in the mean fluorescence intensity (MFI value) in each cell and is calculated by the following calculation formula: […]

B1: rabbit anti-CAPRIN-1 monoclonal antibody #1 (antibody, V domains shown)
VH: QSLEESGGDLVKPGASLTLTCTASGFSFSGSYYMSWVRQAPGKGLEWIAYIYIGDGVTAYANWAKGRFTISKASSTTVTLQMTSLTAADTATYFCARGNKLWGPGTLVTVSS
VL: DVVMTQTPASVEAAVGGTVTIKCQASQSISSYLAWYQQKPGQPPKRLIYDASNLDSGVPSRFKGSGSGTDFTITISDLECADAATYYCQCTAVSSATIYGNAFGGGTEVVVK
notes: rabbit hybridoma antibody
B1: binds [1].

B2: human-rabbit chimeric anti-CAPRIN-1 antibody #1 (antibody, V domains shown)
VH: QSLEESGGDLVKPGASLTLTCTASGFSFSGSYYMSWVRQAPGKGLEWIAYIYIGDGVTAYANWAKGRFTISKASSTTVTLQMTSLTAADTATYFCARGNKLWGPGTLVTVSS
VL: DVVMTQTPASVEAAVGGTVTIKCQASQSISSYLAWYQQKPGQPPKRLIYDASNLDSGVPSRFKGSGSGTDFTITISDLECADAATYYCQCTAVSSATIYGNAFGGGTEVVVK
notes: also called human-rabbit chimeric anti-CAPRIN-1 monoclonal antibody #1
B2: binds [2].

B3: mouse anti-CAPRIN-1 antibody #34 (antibody, V domains shown)
VH: GAELVRPGTSVKVSCKASVYAFTNYLIEWVKQRPGQGLEWIGVINPKSGGTKYNEKFRGKATLTADKSSSTAYMQLSSLTSGDSAVYFCAITGTDYWGQGTTLTVSS
VL: QGTRCDIQMTQTTSSLSASLGDRVTISCSASQGINNYLNWYQQKPDGTVKLLIYYTSSLRSGVPSRFSGSGSGTDYSLTISNLEPEDVATYYCQQYSKLPRTFGGGTKLEIKR
notes: mouse hybridoma antibody; also called mouse anti-CAPRIN-1 monoclonal antibody #34; mouse anti-CAPRN-1 antibody #34
With B3 the binding result [3] was “binds” and the “increase in fluorescence intensity over the control” value [4] was no less than 35%.

B4: human-chicken chimeric antibody #3 (antibody, human IgG1, kappa, V domains shown)
VH: AVTLDESGGGLQTPGGALSLVCKASGFTFSGYDMLWVRQAPGKGLEWVAGIGSTGGGTDYGAAVKGRATISRDNGQSTVRLQLNNLRAEDTATYYCAKVAGGCNSGYCRDSPGSIDAWGHGTEVIVSA
VL: AVTQQPASVSANPGETVKITCSGGGSRNYYGWYQQKSPGSVPVTVIYYDDQRPSNIPSRFSGALSGSTSTLTITGVQADDEAVYFCGSADSNTYEGSFGAGTTLTVLT
notes: produced similarly to human-chicken chimeric antibody #1 from chicken monoclonal antibody #3; human IgG1 constant domains; also called human-chicken chimeric monoclonal antibody #3
With B4 the binding result [5] was “binds” and the “cytotoxicity (ADCC, 51Cr release) on SK-Hep-1” value [6] was no less than 12%.

B5: mouse monoclonal antibody #5 (antibody, V domains shown)
VH: DAELVKPGASVKISCKASGYTFTDHSIHWVQQKPEQGLEWIGYISPGNGNIKYNEKFKGKATLTADKSSSTAYMQLNSLTSEDSAVYFCKRSLGRGGPYYFDYWGQGTTVTVSS
VL: DIVLTQAAPSLPVTPGESVSISCRSSKSLLHSNGNTYLYWFLQRPGQSPQLLIYRMSNLASGVPDRFSGSGSGTAFTLRISRVEAEDVGVYYCMQHREYPVTFGSGPN
notes: mouse hybridoma antibody
B5 was tested, and the binding result [7] was “binds”, the binding result [8] was “binds” and the “cytotoxicity (ADCC, 51Cr release) on SK-Hep-1” value [6] was no less than 12%. For the same binder, the “rate of increase in mean fluorescence intensity” value [9] was no less than 20%.
